Data reported in patent publication US20210347908A1 (ELPISCIENCE SUZHOU BIOPHARMA, published 2021).

Key:
[1] = target: T1, Fc tagged human SIRPα v2 ECD recombinant protein (human); assay: ELISA
T1 construct: range 1-369; cloned range M1-R369 includes the signal peptide; also called hSIRPα V2
Procedure: (§1) Binding specificity of the purified hybridoma antibodies against SIRP family members was detected by ELISA assay using recombinant proteins of Fc tagged human SIRPα v1 ECD, human SIRPα v2 ECD, human SIRPβ ECD and human SIRPγ ECD. Briefly the antibodies were incubated with ELISA microplate coated antigens at 37° C. for 1 hour. After washing, horseradish peroxidase (HRP) labeled anti-mouse or anti-human IgG 2nd Ab (Sigma) was added and incubated at 37° C. for 1 hour. Then, 100 μl/well of TMB solution (Biotechnology) was added. After incubation for 15 minutes at room temperature, the reaction was stopped by the addition of 50 μl of 1N HCl. OD 450 nm was read and EC₅₀ was calculated. Other than 060 and HEFLB, all of the antibodies as tested can bind with both human SIRPα v1 and SIRPα v2. 060 and HEFLB can bind with human SIRPα v1 but not v2. Other than 055, all of the antibodies as tested can bind with human SIRPβ. In comparison with other known anti-SIRPα antibodies, only 022, 035 and 050 can bind with human SIRPγ weakly.
(§2) The purified chimeric antibodies were applied for binding specificity analysis and species cross reactivity analysis (refer to methods described in Example 3.3 and 3.4). FIGS. 1A to 1D show binding specificity of anti-SIRPα chimeric antibodies against recombinant proteins of human SIRPα v1 ECD (A), human SIRPα v2 ECD (B), human SIRPβ ECD (C) and human SIRPγ ECD (D) as measured by ELISA analysis.

[2] = target: T2, Fc tagged human SIRPβ ECD recombinant protein (human, UniProt O00241 30-371); assay: ELISA
T2 construct: range 1-371; cloned range includes the signal peptide; also called hSIRPβ; not shown: human IgG Fc region (hFc) of the pCPC vector
T2 sequence (O00241 30-371 limits assumed, form in doubt): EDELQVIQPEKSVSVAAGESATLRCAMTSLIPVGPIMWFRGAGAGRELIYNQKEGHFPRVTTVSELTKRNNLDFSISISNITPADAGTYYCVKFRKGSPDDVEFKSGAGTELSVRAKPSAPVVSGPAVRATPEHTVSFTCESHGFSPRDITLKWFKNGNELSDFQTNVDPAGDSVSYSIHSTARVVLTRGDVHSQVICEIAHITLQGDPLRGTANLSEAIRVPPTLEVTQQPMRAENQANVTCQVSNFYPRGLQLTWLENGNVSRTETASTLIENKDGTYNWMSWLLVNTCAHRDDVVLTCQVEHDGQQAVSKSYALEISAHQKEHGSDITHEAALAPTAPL
Procedure: as §1, §2

[3] = target: 6×His tagged human SIRPα v2 ECD recombinant protein (human); assay: SPR (Biacore)
6×His tagged human SIRPα v2 ECD recombinant protein (human), sequence (chain, as listed by the source): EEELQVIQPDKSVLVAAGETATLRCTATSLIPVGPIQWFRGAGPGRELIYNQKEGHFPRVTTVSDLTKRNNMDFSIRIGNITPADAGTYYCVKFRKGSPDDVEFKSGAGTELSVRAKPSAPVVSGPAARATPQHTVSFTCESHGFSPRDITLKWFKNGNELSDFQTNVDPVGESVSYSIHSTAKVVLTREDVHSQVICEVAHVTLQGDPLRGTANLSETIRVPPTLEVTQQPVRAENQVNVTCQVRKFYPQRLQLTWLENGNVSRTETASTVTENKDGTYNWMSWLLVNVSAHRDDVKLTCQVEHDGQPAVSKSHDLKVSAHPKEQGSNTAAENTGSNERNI
Procedure: (§3) Anti-SIRPα chimeric antibodies were characterized for binding affinity against human SIRPα v1, human SIRPα v2 and C57BL/6 mouse SIRPα using Biacore (GE). Briefly the antibodies to be tested were captured to CM5 chip (GE) using Human Antibody Capture Kit (GE). The antigens of 6×His tagged human SIRPα v1, human SIRPα v2 and C57BL/6 mouse SIRPα ECD recombinant proteins were serially diluted for multiple doses and injected at 30 μl/min for 180 s. Buffer flow was maintained for dissociation of 400 s. 3 M MgCl₂ was used for chip regeneration. The association and dissociation curves were fit with 1:1 binding model, and the Ka/Kd/KD values for each antibody were calculated.

[4] = target: T3, 6×His tagged human SIRPα v1 ECD recombinant protein (human, UniProt P78324 31-373); assay: SPR (Biacore)
T3 construct: extracellular domain; bought; also called hSIRPα V1 (SPR antigen)
T3 sequence (P78324 other isoform, or with tags, fused parts or gaps): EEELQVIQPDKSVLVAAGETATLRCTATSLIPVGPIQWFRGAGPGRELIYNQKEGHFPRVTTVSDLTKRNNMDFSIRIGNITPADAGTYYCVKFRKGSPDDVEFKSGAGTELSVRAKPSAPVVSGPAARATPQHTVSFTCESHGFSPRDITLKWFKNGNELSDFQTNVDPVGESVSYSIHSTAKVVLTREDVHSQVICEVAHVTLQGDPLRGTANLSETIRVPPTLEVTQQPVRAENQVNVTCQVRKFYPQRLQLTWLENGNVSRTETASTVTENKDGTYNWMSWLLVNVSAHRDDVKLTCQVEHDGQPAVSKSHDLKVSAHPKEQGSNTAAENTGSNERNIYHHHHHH
Procedure: as §3

[5] = target: T4, chimeric SIRPα of B-hSIRPA mice (IgV domain of human SIRPα); IgC1/C2, transmembrane and intracellular domains … (human; mouse, UniProt P78324 31-149; P97797 151-513, limits assumed); assay: FACS on spleen cells of B-hSIRPA mice, anti-human IgG secondary antibody, gated on mCD11b/mF4/80 double positive monocytes
T4 construct: domain: IgV domain;domain: IgC1/C2, transmembrane and intracellular domains; whole, on cells (mCD11b+ mF4/80+ spleen monocytes); also called B-hSIRPA mice derived primary monocytes
T4 sequence (P78324 other isoform, or with tags, fused parts or gaps mutant limits assumed): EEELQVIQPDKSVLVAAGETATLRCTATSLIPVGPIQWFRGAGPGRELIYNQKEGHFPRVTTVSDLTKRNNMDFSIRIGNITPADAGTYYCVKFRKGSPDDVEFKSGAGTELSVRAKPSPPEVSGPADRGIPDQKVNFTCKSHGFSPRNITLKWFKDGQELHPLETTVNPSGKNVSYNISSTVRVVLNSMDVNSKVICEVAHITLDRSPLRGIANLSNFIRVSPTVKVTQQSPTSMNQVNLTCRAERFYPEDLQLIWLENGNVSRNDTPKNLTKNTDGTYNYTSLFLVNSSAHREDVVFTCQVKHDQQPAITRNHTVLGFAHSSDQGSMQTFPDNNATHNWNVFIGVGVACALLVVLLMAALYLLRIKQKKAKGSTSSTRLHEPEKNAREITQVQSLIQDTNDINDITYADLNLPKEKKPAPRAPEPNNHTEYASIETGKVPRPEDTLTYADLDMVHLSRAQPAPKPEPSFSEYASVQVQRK
Procedure: The humanized mice express a chimeric SIRPα, comprised of IgV domain of human SIRPα and IgC1/C2, transmembrane and intracellular domains of mouse SIRPα. Briefly spleen cells of B-hSIRPA mice were harvested and incubated with anti-SIRPα chimeric antibodies at 4° C. for 1 hour. After washing, fluorescence labeled anti-human IgG 2nd antibody (Life Technologies) was added and incubated at 4° C. for 1 hour. […] Anti-SIRPα positive staining population in mCD11b and mF4/80 double positive subset was calculated.

Row | Binder | EC50 [1] [nM] | EC50 [2] [nM] | Kd [3] [nM] | Kd [4] [nM] | Positive Staining Population (% in mCD11b, mF4/80 double positive subset) [5] [%] | binding result [5]
1 | chimeric antibody 022c (antibody, V domains shown) VH: QIQLVQSGPELKKPGETVKISCKASGYTFTDYAMHWVKQAPGKGLKWMGWKNTETGESTYAEDFKGRFAFFLETSASTAYLQINNVKNEDTATYFCARGGYGSNYVMDYWGQGTSVIVSS VL: DIQMTQSSSSFSVSLGDRVTITCKASEDIYNRLAWYQQKPGNAPRLLISGATSLETGVPSRFSGSGSGKDYTLSITSLQTEDVATYYCQQYWNSPRTFGGGTKLEIK | 0.11 | 0.08 | 25.6 | 5.9 | – | no binding
2 | chimeric antibody 001c (antibody, V domains shown) VH: EVKLEESGGGLVQPGGSMKLSCVASGFTFRNYWMNWVRQSPERGLEWIAEISLKSNTYATHYAESVKGRFAISRDGSKSSFYLQMNDLRAEDTGIYYCTTFTKVVADWHLDVWGAGTTVTVSS VL: DVLMTQTPLSLPVSLGDQASISCRSSQNIVHSNGNTYLEWYLQKPGQSPKLLIYKVSNRFSGVPDRFSGSGSGTDFTLRISRVEAEDLGVYYCFQGSHVPFTFGSGTKLEIK | 0.09 | 0.12 | 20.6 | 11.4 | 91 | –
3 | chimeric antibody 002c (antibody, V domains shown) VH: EVKLEESGGGLVQPGGSMILSCVASGFTFRNYWMNWVRQSPERGLEWIAEITLKSNTYATHYAESVKGRFAISRDDSKSSFYLQMNDLRPEDTGIYYCTTFTKVVADWHLDVWGAGTTVTVSS VL: DVLMTQTPLSLPVSLGDQASISCRSSQNIVHSNGNTYLEWYLQKPGQSPKLLIYKISNRFSGVPDRFSGSGSGTDFTLRISRVEAEDLGVYYCFQGSHVPFTFGSGTKLEIQ | 0.06 | 0.11 | 28.3 | 16.1 | 88.9 | –
4 | chimeric antibody 032c (antibody, V domains shown) VH: EVRLEESGGGLVQPGGSMKLSCVVSGFTFRNYWMNWVRQSPERGLEWIAEITLKSNTYATHYAESVKGRFAISRDDSKSSFYLQMNDLRPEDTGIYYCTTFTKVVADWHLDVWGAGTTVTVSS VL: DVLMTQTPLSLPVNLGDQASISCRSSQNIVHSNGNTYLEWYLQKPGQSPKLLIYKVSNRFSGVPDRFSGSGSGTDFTLRISRVEAEDLGVYYCFQGSHVPFTFGSGTKLEIK | 0.11 | 0.12 | 14.7 | 8.92 | 91.5 | –

More lines, now with the values ahead:

Row | EC50 [1] [nM] | EC50 [2] [nM] | Kd [3] [nM] | Kd [4] [nM] | Positive Staining Population (% in mCD11b, mF4/80 double positive subset) [5] [%] | binding result [5] | Binder
5 | 0.1 | 0.08 | 4.72 | 3.07 | 0.16 | no binding | chimeric antibody 050c (antibody, V domains shown) VH: QIQLVQSGPELKKPGETVKISCKASGYTFTHYSMHWVKQAPGKGLKWMGWINTETAEPTYVDDFKGRFAFSLEASASTAFFQINNLKNEDTATYFCARGGLRQGDYWGQGTTLTVSS VL: QIVLTQSPPIMSASPGEKVTLTCSATSSVSASYLYWFQQKPGSSPKLWIYSTSNLASGVPARFSGSGSGTSYSLTISNMEPADAASYFCHQWSSYPYTFGGGTKLEIK
6 | 0.08 | 0.08 | 2.62 | 1.11 | 91.3 | – | chimeric antibody 035c (antibody, V domains shown) VH: QIQLVQSGPELRKPGETVKISCKASGYSFTNYAMNWVKQAPGKVLKWMGFINTYTGEPTYADDFKGRFAFSLETSASTAYLQINNLKNEDTATYFCTRTRGYYDFDGGAFDYWGQGTSLTVSS VL: DIVMTQSQKFMSTSIGDRVSVTCKASQNVGTHLAWYQQKPGQSPKALIFSASYRYIGVPDRFTGSGSGTDFTLTITNVQSEDLAEYFCQQYNTYPLTFGAGTKLELK
7 | – | 0.24 | – | 1.49 | 86 | – | chimeric antibody 060c (antibody, V domains shown) VH: QVQLKESGPGLVAPSESLSITCTVSGFSLTNYDISWIRQSPGKGLEWLGVIWTGGDTNFNSAFMSRLSISKDKSKSQVFLKLNSLQTDDTAIYYCVRVQYFGGSYGPMDYWGQGISVTVSS VL: DIQMTQASSYLSVSLGGRVTITCEASDHINDWLAWYQQTPGNAPRLLISGATSLETGVPSRFSGSGSGKDYTLSITSLQTEDIATYYCQQYWNTPLTFGAGTRLELK
8 | 0.14 | 0.11 | 25.2 | 4.4 | 0.14 | no binding | chimeric antibody 074c (antibody, V domains shown) VH: QVQLQQPRAELVKPGASVMLSCKASGYTFSSYWIHWVRQGPGQGLEWIGLIHPNSGNTDCSETFKNKATLTVDTSSSTAYMQLSSLASEDSAVYYCARDGASYDWFVHWGQGTLVTVSA VL: not shown
9 | 0.11 | – | 28.5 | 16.6 | 0.13 | no binding | chimeric antibody 055c (antibody, V domains shown) VH: EVKLVESEGGLVQPGDSMKLSCTASGFTFSDYFMTWIRQVPEKGLEWIANVNYDGRSTYYLDSLKSRFIISRDNANNILYLQMSSLKSEDTATYYCAREGSQTPLYAVDYWGQGTSVTVSS VL: DIVMTQSQKFMSTTVGDRVNITCKASQNVGTAVAWYQQKPGQSPKLLIYLASNRYTGVPDRFTGSGSGTDFTLTVSDMRSEDLADYFCQQYSIYPFTFGSGTKLEIK
